Laboratory results from the supplement of paper PMC10567573.

B1: RPS21 (parent)
chain: AEVSWEPGRREGCDICAGKAGCPI
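Note: lentivirally expressed fusions sorted by FACS into six bins by GFP to DsRed ratio, PSI derived from sequencing read proportions per bin multiplied by bin number.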

Variants of: B1
Assay: protein stability index of a GFP-peptide fusion (GPS, HEK-293T) (PSI 1-6); higher = more stable
Settings: c terminus: a fixed tail appended
With AEVSWEPGFREGCDICAGKAGCPI [R9F] the protein stability index was 3.89. AEVSWEPGDREGCDICAGKAGCPI [R9D] gave a protein stability index of 4.04. Work on AEVSWEPGLREGCDICAGKAGCPI [R9L] yielded a protein stability index of 3.49. AEVSWEPGMREGCDICAGKAGCPI [R9M] gave a protein stability index of 3.02. With AEVSWEPGWREGCDICAGKAGCPI [R9W] the protein stability index was 2.67. Work on AEVSWEPGRREGCDWCAGKAGCPI [I15W] yielded a protein stability index of 3.74. Work on AEVSWEPGRREGCDMCAGKAGCPI [I15M] yielded a protein stability index of 3.42. For AEVSWEPGRREGCDRCAGKAGCPI [I15R], the protein stability index was 2.96. In the case of AEVSWEPGRREGCDICAGKNGCPI [A20N], the protein stability index is reported as 3.26. In the case of AEVSWEPGRREGCDICAGKEGCPI [A20E], the protein stability index is reported as 2.36. For AEVSWEPGRREGCDICAGKTGCPI [A20T], the protein stability index was 3.75. AEVSWEPGRREGCDICAGNAGCPI [K19N] showed a protein stability index of 2. For AEVSWEPGRREGCDICAGTAGCPI [K19T], the protein stability index was 2.62. With AEVSWEPGRREGCDICAGEAGCPI [K19E] the protein stability index was 4.29. Variant AEVSMEPGRREGCDICAGKAGCPI [W5M] has a protein stability index of 3.06. AEVSKEPGRREGCDICAGKAGCPI [W5K] gave a protein stability index of 4.84. For AEVSQEPGRREGCDICAGKAGCPI [W5Q], the protein stability index was 4.19. AEVSWEPGRREGCDICAGKAGMPI [C22M] gave a protein stability index of 3.11. Work on AEVSWEPGRREGCDICAGKAGRPI [C22R] yielded a protein stability index of 2.32. Work on AEVSWEPGRREGCDICAGKAGHPI [C22H] yielded a protein stability index of 2.9. In the case of VEVSWEPGRREGCDICAGKAGCPI [A1V], the protein stability index is reported as 1.36. Variant REVSWEPGRREGCDICAGKAGCPI [A1R] has a protein stability index of 3.51. For YEVSWEPGRREGCDICAGKAGCPI [A1Y], the protein stability index was 2.76. Work on MEVSWEPGRREGCDICAGKAGCPI [A1M] yielded a protein stability index of 3.37. In the case of CEVSWEPGRREGCDICAGKAGCPI [A1C], the protein stability index is reported as 2.9. With FEVSWEPGRREGCDICAGKAGCPI [A1F] the protein stability index was 1.94. AEVSWEPGRREGCDICLGKAGCPI [A17L] gave a protein stability index of 2.01. AEVSWEPGRREGCDICNGKAGCPI [A17N] gave a protein stability index of 3.45. For AEVSWEPGRREGCDICCGKAGCPI [A17C], the protein stability index was 3.11. Work on AEVSWEPGRAEGCDICAGKAGCPI [R10A] yielded a protein stability index of 3.49. In the case of AEVSWEPGRPEGCDICAGKAGCPI [R10P], the protein stability index is reported as 1.9. AEVSWEPGRNEGCDICAGKAGCPI [R10N] showed a protein stability index of 3.47. AEVSWEPGRQEGCDICAGKAGCPI [R10Q] showed a protein stability index of 3.09. Variant AEVSWEPGRTEGCDICAGKAGCPI [R10T] has a protein stability index of 3.2. Variant AEVSWEPGRIEGCDICAGKAGCPI [R10I] has a protein stability index of 2.91. Variant AEVLWEPGRREGCDICAGKAGCPI [S4L] has a protein stability index of 3.81. With AEVDWEPGRREGCDICAGKAGCPI [S4D] the protein stability index was 3.41. AEVMWEPGRREGCDICAGKAGCPI [S4M] gave a protein stability index of 1.58. AEVSWEPGRREGCDICAGKAGCWI [P23W] showed a protein stability index of 1.8. Work on AEVSWEPGRREGCDICAGKAGCVI [P23V] yielded a protein stability index of 2.18. In the case of AEVSWEPGRREGCDICAGKAGCYI [P23Y], the protein stability index is reported as 1.73. AEVSWEPGRREGCDICAGKAGCAI [P23A] showed a protein stability index of 2.32. With AEVSWEPGRREGCDICAGKAGCEI [P23E] the protein stability index was 3.1. With AEVSWEPGRREGCDICAGKAGCHI [P23H] the protein stability index was 2.61. Work on AEVSWEPGRREGCDICAGKAGCMI [P23M] yielded a protein stability index of 1.48. AMVSWEPGRREGCDICAGKAGCPI [E2M] showed a protein stability index of 2.83. With AHVSWEPGRREGCDICAGKAGCPI [E2H] the protein stability index was 2.02. Variant ALVSWEPGRREGCDICAGKAGCPI [E2L] has a protein stability index of 3.09. With AYVSWEPGRREGCDICAGKAGCPI [E2Y] the protein stability index was 2.68. Variant ARVSWEPGRREGCDICAGKAGCPI [E2R] has a protein stability index of 1.99. For ADVSWEPGRREGCDICAGKAGCPI [E2D], the protein stability index was 3.79. AEVSWEPGRREVCDICAGKAGCPI [G12V] gave a protein stability index of 2.63. In the case of AEVSWEPGRREICDICAGKAGCPI [G12I], the protein stability index is reported as 2.52. AEVSWEPGRREDCDICAGKAGCPI [G12D] gave a protein stability index of 4.16. Work on AEVSWEPGRRENCDICAGKAGCPI [G12N] yielded a protein stability index of 3.07. Variant AEVSWEPGRREWCDICAGKAGCPI [G12W] has a protein stability index of 4.38. Variant AEVSWEPGRREQCDICAGKAGCPI [G12Q] has a protein stability index of 2.45. With AEVSWEPGRREGCDICAGKAFCPI [G21F] the protein stability index was 2.13. AEVSWEPGRREGCDICAGKASCPI [G21S] showed a protein stability index of 2.59. Variant AEVSWEPGRREGCDICAGKAMCPI [G21M] has a protein stability index of 3.01. In the case of AEVSWEPGRREGCDICAGKALCPI [G21L], the protein stability index is reported as 3.38. AEVSWEPGRREGCDICAGKAICPI [G21I] showed a protein stability index of 2.67. For AEVSWEPGRREGCDICAGKARCPI [G21R], the protein stability index was 2.75. Variant AEVSWEPGRREGCDICAGKAQCPI [G21Q] has a protein stability index of 4.18. AEVSWEPGRREGCDICAGKAACPI [G21A] showed a protein stability index of 3.26. AEVSWESGRREGCDICAGKAGCPI [P7S] gave a protein stability index of 2.77. Variant AEVSWEHGRREGCDICAGKAGCPI [P7H] has a protein stability index of 3.92. With AEVSWEPMRREGCDICAGKAGCPI [G8M] the protein stability index was 2.59. AEVSWEPYRREGCDICAGKAGCPI [G8Y] gave a protein stability index of 1.74. AEVSWEPCRREGCDICAGKAGCPI [G8C] gave a protein stability index of 3.67. With AEVSWEPQRREGCDICAGKAGCPI [G8Q] the protein stability index was 3.99. In the case of AEVSWEPFRREGCDICAGKAGCPI [G8F], the protein stability index is reported as 2.46. AEVSWVPGRREGCDICAGKAGCPI [E6V] showed a protein stability index of 2.66. With AEVSWQPGRREGCDICAGKAGCPI [E6Q] the protein stability index was 2.78. For AEVSWRPGRREGCDICAGKAGCPI [E6R], the protein stability index was 3.04. For AEVSWHPGRREGCDICAGKAGCPI [E6H], the protein stability index was 5.82. With AEVSWTPGRREGCDICAGKAGCPI [E6T] the protein stability index was 2.79. For AEVSWIPGRREGCDICAGKAGCPI [E6I], the protein stability index was 2. AEVSWGPGRREGCDICAGKAGCPI [E6G] showed a protein stability index of 2.36. Work on AEVSWEPGRREGCAICAGKAGCPI [D14A] yielded a protein stability index of 2.13. AEKSWEPGRREGCDICAGKAGCPI [V3K] showed a protein stability index of 4. In the case of AEMSWEPGRREGCDICAGKAGCPI [V3M], the protein stability index is reported as 1.9. In the case of AEWSWEPGRREGCDICAGKAGCPI [V3W], the protein stability index is reported as 3.27. Variant AEISWEPGRREGCDICAGKAGCPI [V3I] has a protein stability index of 2.23. With AEVSWEPGRREGCDICACKAGCPI [G18C] the protein stability index was 2.79. In the case of AEVSWEPGRREGCDICAPKAGCPI [G18P], the protein stability index is reported as 3.47. In the case of AEVSWEPGRREGCDICAKKAGCPI [G18K], the protein stability index is reported as 2.7. AEVSWEPGRREGCDICANKAGCPI [G18N] showed a protein stability index of 3.63. Work on AEVSWEPGRREGCDICAYKAGCPI [G18Y] yielded a protein stability index of 2.66. Variant AEVSWEPGRREGCDICAGKAGCPE [I24E] has a protein stability index of 4.76. For AEVSWEPGRREGCDICAGKAGCPG [I24G], the protein stability index was 3.41. Variant AEVSWEPGRREGADICAGKAGCPI [C13A] has a protein stability index of 2.49. With AEVSWEPGRREGEDICAGKAGCPI [C13E] the protein stability index was 4.21. Work on AEVSWEPGRREGDDICAGKAGCPI [C13D] yielded a protein stability index of 4.06.
